IntAct's records for PubMed 28335037

B1: E3 ubiquitin-protein ligase LRSAM1 (Homo sapiens), Q6UWE0 (parent)
chain: MPLFFRKRKPSEEARKRLEYQMCLAKEAGADDILDISKCELSEIPFGAFATCKVLQKKVLIVHTNHLTSLLPKSCSLLSLATIKVLDLHDNQLTALPDDLGQLTALQVLNVERNQLMQLPRSIGNLTQLQTLNVKDNKLKELPDTVGELRSLRTLNISGNEIQRLPQMLAHVRTLEMLSLDASAMVYPPREVCGAGTAAILQFLCKESGLEYYPPSQYLLPILEQDGIENSRDSPDGPTDRFSREELEWQNRFSDYEKRKEQKMLEKLEFERRLELGQREHTQLLQQSSSQKDEILQTVKEEQSRLEQGLSEHQRHLNAERQRLQEQLKQTEQNISSRIQKLLQDNQRQKKSSEILKSLENERIRMEQLMSITQEETESLRRRDVASAMQQMLTESCKNRLIQMAYESQRQNLVQQACSSMAEMDERFQQILSWQQMDQNKAISQILQESAMQKAAFEALQVKKDLMHRQIRSQIKLIETELLQLTQLELKRKSLDTESLQEMISEQRWALSSLLQQLLKEKQQREEELREILTELEAKSETRQENYWLIQYQRLLNQKPLSLKLQEEGMERQLVALLEELSAEHYLPIFAHHRLSLDLLSQMSPGDLAKVGVSEAGLQHEILRRVQELLDAARIQPELKPPMGEVVTPTAPQEPPESVRPSAPPAELEVQASECVVCLEREAQMIFLNCGHVCCCQQCCQPLRTCPLCRQDIAQRLRIYHSS

Variants of: B1
Conditions: with ube2b_rabit UBE2B

| Variant | effect of a mutation on the interaction |
| --- | --- |
| Q573K | with no effect |
| C694Y | disrupting interaction strength |
| P707L | disrupting interaction strength |
